{
  "source": "paper PMC11070850",
  "origin": "cited, not measured here",
  "molecular_target": "mucin 1 (UniProt P15941)",
  "sequence (P15941 24-1158)": "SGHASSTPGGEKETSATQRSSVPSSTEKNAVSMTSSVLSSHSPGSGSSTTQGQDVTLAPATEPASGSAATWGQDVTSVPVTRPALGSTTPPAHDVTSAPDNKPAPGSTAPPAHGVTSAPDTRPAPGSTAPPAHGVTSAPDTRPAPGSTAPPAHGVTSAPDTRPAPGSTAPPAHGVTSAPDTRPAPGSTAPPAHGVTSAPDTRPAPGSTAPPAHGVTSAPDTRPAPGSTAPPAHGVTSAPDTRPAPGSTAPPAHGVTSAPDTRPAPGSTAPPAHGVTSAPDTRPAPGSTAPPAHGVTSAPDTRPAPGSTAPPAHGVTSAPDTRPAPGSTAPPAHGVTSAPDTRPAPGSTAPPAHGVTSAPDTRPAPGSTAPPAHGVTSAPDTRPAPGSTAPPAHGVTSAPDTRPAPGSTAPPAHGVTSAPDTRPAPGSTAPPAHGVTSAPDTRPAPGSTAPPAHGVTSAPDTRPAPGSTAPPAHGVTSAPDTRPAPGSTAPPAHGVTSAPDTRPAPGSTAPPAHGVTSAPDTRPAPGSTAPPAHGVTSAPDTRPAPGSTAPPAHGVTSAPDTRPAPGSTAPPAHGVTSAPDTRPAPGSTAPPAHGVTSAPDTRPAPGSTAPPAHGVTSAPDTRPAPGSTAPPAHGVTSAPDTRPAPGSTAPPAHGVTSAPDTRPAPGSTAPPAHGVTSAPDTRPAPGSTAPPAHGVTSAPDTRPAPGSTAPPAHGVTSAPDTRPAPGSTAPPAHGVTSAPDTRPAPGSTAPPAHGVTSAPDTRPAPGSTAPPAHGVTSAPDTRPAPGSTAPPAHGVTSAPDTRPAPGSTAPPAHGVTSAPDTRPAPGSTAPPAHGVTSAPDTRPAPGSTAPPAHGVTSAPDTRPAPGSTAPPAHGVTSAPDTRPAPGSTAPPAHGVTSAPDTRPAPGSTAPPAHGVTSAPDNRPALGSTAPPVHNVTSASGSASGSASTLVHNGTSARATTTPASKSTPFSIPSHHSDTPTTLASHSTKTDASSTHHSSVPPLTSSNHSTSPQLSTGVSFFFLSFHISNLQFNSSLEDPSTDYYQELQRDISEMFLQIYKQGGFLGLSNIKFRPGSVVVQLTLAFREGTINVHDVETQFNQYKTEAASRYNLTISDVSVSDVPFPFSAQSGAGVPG",
  "conditions": "10 mM MOPS, 100 mM NaNO3, pH 7.6, room temperature, 60 min (aptamer + mucin 1 + DNA nanospheres); then CuSO4 50 min and calcein 2 min",
  "data": [
    {"sequence": "GCAGTTGATCCTTTGGATACCCTGG [mucin 1 aptamer]", "values": [
      {"measurement": "Kd", "result": 0.135, "unit": "nM"}
    ]}
  ]
}
